This experiment deals with mouse CD40 on BALB/c thymocytes (mouse) (UniProt P27512). Briefly: cell-based or functional assay.
Sequence of UniProt P27512 (P27512 20-289): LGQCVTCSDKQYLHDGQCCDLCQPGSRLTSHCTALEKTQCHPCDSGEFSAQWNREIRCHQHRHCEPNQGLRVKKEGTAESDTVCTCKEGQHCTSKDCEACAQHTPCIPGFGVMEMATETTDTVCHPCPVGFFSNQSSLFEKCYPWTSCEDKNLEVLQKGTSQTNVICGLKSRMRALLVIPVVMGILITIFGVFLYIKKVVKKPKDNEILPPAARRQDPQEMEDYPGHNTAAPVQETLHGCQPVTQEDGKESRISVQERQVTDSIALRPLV

Take “rat IgG anti-mouse CD40, 1C10 (antibody)”: the increase in Vα8 expression in gated DP thymocytes was found to be 12% and the percent Vα11+ thymocytes worked out at 3.3%.

The values above are taken from US20050048055A1.
